Results as given in US20210087296A1 (published 2021).
Each block holds one binder with its values, some of them ahead of it.

Target: matrix metalloproteinase-14 catalytic domain (cdMMP-14) (UniProt P50281 114-287, biotinylated with EZ-Link Sulfo-NHS-LC-Biotin for ELISA; amine-coupled to CM5 chip for SPR)
Assay: ELISA

EC50: > 1000 nM
B1: Fab R3C8 (Fab, V domains shown)
VH: EVQLVESGGGLVQPGGSLRLSCAASGFNFSSSSIHWVRQAPGKGLEWVASIYPSYSYTYYADSVKGRFTISADTSKNTAYLQMNSLRAEDTAVYYCARHCLLRSRRCEMSTKTRELNVYRYAMDYWGQGTLVTVSS
VL: DIQMTQSPSSLSASVGDRVTITCRASQSVSSAVAWYQQKPGKAPKLLIYSASSLYSGVPSRFSGSRSGTDFTLTISSLQPEDFATYYCQQWPVGSSYPITFGQGTKVEIKR

EC50: 4 nM
B2: Fab 3A2 (Fab, V domains shown)
VH: EVQLVESGGGLVQPGGSLRLSCAASGFNLSSSSMHWVRQAPGKGLEWVASIYPSYSYTYYADSVKGRFTISADTSKNTAYLQMNSLRAEDTAVYYCARVKLQKDKSHQWIRNLVATPYGRYVMDYWGQGTLVTVSS
VL: DIQMTQSPSSLSASVGDRVTITCRASQSVSSAVAWYQQKPGKAPKLLIYSASSLYSGVPSRFSGSRSGTDFTLTISSLQPEDFATYYCQQYGYPITFGQGTKVEIKR

EC50: > 1000 nM
B3: Fab R2C14 (Fab, V domains shown)
VH: EVQLVESGGGLVQPGGSLRLSCAASGFNIYSSSIHWVRQAPGKGLEWVASIYSYSGYTYYADSVKGRFTISADTSKNTAYLQMNSLRAEDTAVYYCARVSNRYNRSSASIAGLQLFRPYGMDYWGQGTLVTVSS
VL: DIQMTQSPSSLSASVGDRVTITCRASQSVSSAVAWYQQKPGKAPKLLIYSASSLYSGVPSRFSGSRSGTDFTLTISSLQPEDFATYYCQQSSYSLITFGQGTKVEIKR
